Article PMC3464228

Biological target: purified human fibrinogen (human) (UniProt P02671)
Sequence of UniProt P02671 (P02671 36-866, chain 1 of 3): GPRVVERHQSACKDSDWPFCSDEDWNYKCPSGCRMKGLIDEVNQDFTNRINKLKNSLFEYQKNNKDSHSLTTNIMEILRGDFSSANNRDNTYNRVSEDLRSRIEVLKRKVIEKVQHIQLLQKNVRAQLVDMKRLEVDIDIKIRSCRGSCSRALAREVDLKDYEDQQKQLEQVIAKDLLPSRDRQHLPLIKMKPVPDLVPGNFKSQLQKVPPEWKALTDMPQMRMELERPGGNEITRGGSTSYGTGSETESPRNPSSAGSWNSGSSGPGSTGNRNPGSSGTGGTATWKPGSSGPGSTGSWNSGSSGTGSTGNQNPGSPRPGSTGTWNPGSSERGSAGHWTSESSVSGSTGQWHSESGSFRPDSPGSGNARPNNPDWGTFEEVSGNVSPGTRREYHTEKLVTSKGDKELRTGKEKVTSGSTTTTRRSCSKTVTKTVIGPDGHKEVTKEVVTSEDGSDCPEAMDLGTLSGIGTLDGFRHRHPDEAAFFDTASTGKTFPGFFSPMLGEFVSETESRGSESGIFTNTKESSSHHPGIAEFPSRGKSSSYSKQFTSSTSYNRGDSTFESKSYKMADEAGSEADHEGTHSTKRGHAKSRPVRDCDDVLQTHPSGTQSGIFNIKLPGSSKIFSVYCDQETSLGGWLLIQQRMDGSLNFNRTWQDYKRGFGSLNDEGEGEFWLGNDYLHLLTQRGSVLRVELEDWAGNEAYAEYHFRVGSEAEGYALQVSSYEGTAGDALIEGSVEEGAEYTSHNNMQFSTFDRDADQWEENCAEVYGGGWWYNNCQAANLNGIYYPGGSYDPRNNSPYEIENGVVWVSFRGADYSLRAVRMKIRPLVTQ
Sequence of UniProt P02671 (P02675 45-491, chain 2 of 3, further chain): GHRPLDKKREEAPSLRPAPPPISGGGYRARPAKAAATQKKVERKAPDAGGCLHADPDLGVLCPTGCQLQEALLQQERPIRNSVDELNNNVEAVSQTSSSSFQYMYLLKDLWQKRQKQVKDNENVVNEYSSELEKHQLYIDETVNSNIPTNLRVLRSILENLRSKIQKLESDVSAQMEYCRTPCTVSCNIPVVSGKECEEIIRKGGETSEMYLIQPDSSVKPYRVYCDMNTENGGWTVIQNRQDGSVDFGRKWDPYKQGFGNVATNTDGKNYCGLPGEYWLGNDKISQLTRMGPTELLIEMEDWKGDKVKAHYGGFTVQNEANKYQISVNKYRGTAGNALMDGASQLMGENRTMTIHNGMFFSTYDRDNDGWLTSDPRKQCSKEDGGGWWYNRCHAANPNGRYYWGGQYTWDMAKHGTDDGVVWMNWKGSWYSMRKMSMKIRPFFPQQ
Sequence of UniProt P02671 (P02679 27-453, chain 3 of 3, further chain): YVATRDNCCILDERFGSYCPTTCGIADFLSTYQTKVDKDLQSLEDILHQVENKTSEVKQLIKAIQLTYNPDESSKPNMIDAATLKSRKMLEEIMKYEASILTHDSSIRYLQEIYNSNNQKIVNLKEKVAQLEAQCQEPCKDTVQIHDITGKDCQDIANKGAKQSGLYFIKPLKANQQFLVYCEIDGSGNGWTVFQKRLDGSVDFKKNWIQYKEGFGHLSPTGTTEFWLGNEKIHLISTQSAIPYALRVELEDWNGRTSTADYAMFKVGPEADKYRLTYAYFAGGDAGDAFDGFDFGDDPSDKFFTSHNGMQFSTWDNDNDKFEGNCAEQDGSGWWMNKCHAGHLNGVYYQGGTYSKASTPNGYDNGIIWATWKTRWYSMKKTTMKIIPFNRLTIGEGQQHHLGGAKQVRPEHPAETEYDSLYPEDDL

“serine-rich repeat glycoprotein Srr1 of Streptococcus agalactiae (native, surface expressed) (natural protein)” was tested, and the adherence of GBS strain COH31 to immobilized human fibrinogen (0.1 µM per well), percent of inoculum bound (% of inoculum) was 16.
